# Assay results from article PMC4227051, “B4GAT1 is the priming enzyme for the LARGE-dependent functional glycosylation of α-dystroglycan” (eLife, 2014).
# T1: B3GNT2 (Homo sapiens, UniProt Q9NY97)
# T1 construct: catalytic domain residues 35-397, secreted; N-terminal 8xHis-AviTag-sfGFP-TEV fusion kept; HEK293F host, Ni-NTA
# T1 sequence (Q9NY97 35-397): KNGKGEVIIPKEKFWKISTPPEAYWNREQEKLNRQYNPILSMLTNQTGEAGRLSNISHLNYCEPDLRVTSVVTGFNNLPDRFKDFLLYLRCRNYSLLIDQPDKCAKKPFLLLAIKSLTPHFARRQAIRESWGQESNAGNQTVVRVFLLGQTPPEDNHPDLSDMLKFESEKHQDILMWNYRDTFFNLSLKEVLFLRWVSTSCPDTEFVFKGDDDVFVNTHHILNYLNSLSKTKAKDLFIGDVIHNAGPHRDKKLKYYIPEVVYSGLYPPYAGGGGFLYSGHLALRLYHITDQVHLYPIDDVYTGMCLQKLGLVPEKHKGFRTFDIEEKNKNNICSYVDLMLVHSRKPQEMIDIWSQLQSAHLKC
# B1: B3GNT1 (B4GAT1) (Homo sapiens) (protein)
# chain: RSVDQVKAQLRTALASGGVLDASGDYRVYRGLLKTTMDPNDVILATHASVDNLLHLSGLLERWEGPLSVSVFAATKEEAQLATVLAYALSSHCPDMRARVAMHLVCPSRYEAAVPDPREPGEFALLRSCQEVFDKLARVAQPGINYALGTNVSYPNNLLRNLAREGANYALVIDVDMVPSEGLWRGLREMLDQSNQWGGTALVVPAFEIRRARRMPMNKNELVQLYQVGEVRPFYYGLCTPCQAPTNYSRWVNLPEESLLRPAYVVPWQDPWEPFYVAGGKVPTFDERFRQYGFNRISQACELHVAGFDFEVLNEGFLVHKGFKEALKFHPQKEAENQHNKILYRQFKQELKAKYPNSPRRC
# notes: catalytic domain residues 54-415, secreted, transmembrane domain removed; N-terminal 8xHis-AviTag-sfGFP-TEV fusion cut by TEV; HEK293F host, Ni-NTA
# B2: LARGE (Homo sapiens) (protein)
# chain: PSHRRGNHSKTYSMEEGTGDSENLRAGIVAGNSSECGQQPVVEKCETIHVAIVCAGYNASRDVVTLVKSVLFHRRNPLHFHLIADSIAEQILATLFQTWMVPAVRVDFYNADELKSEVSWIPNKHYSGIYGLMKLVLTKTLPANLERVIVLDTDITFATDIAELWAVFHKFKGQQVLGLVENQSDWYLGNLWKNHRPWPALGRGYNTGVILLLLDKLRKMKWEQMWRLTAERELMGMLSTSLADQDIFNAVIKQNPFLVYQLPCFWNVQLSDHTRSEQCYRDVSDLKVIHWNSPKKLRVKNKHVEFFRNLYLTFLEYDGNLLRRELFGCPSEADVNSENLQKQLSELDEDDLCYEFRRERFTVHRTHLYFLHYEYEPAADSTDVTLVAQLSMDRLQMLEAICKHWEGPISLALYLSDAEAQQFLRYAQGSEVLMSRHNVGYHIVYKEGQFYPVNLLRNVAMKHISTPYMFLSDIDFLPMYGLYEYLRKSVIQLDLANTKKAMIVPAFETLRYRLSFPKSKAELLSMLDMGTLFTFRYHVWTKGHAPTNFAKWRTATTPYRVEWEADFEPYVVVRRDCPEYDRRFVGFGWNKVAHIMELDVQEYEFIVLPNAYMIHMPHAPSFDITKFRSNKQYRICLKTLKEEFQQDMSRRYGFAALKYLTAENNS
# notes: catalytic domains residues 91-756, secreted; N-terminal 8xHis-AviTag-sfGFP-TEV fusion kept; HEK293F host, Ni-NTA
# Columns and labels:
# B3GNT2 = biological target: T1, B3GNT2; assay: radioactive GlcNAc transfer, scintillation counting; format: biochemical; details: 0.1 M MES pH 6.5, 10 mM MnCl2, 37 °C, overnight
# purified protein [1] = substrate: O=[N+]([O-])c1ccc(O[C@@H]2OC[C@@H](O)[C@H](O)[C@H]2O)cc1; assay: purified protein; format: biochemical, Homo sapiens; details: 2 mM UDP-GlcA, 0.1 M MES pH 6.5, 10 mM MnCl2, 5 mM MgCl2, 37 °C, 2 h, acceptor tested 200 nM to 2 mM
# purified protein [2] = substrate: O=[N+]([O-])c1ccc(O[C@H]2OC[C@@H](O)[C@H](O)[C@H]2O)cc1; assay: purified protein; format: biochemical, Homo sapiens; details: 2 mM UDP-GlcA, 0.1 M MES pH 6.5, 10 mM MnCl2, 5 mM MgCl2, 37 °C, acceptor tested 200 nM to 2 mM
# [3] = 16 h, glucuronyltransferase activity
molecule,measurement,setting,value
CC(=O)N[C@H]1[C@@H](OP(=O)(O)OP(=O)(O)OC[C@H]2O[C@@H](n3ccc(=O)[nH]c3=O)[C@H](O)[C@@H]2O)O[C@H](CO)[C@@H](O)[C@@H]1O [UDP-GlcNAc],"radioactive GlcNAc transfer, scintillation counting","B3GNT2; donor, labelled compound, acceptor Gal-β4-GlcNAc-β-pNP",radioactive incorporation of GlcNAc into the N-acetyllactosamine acceptor
CC(=O)N[C@H]1[C@H](Oc2ccc([N+](=O)[O-])cc2)O[C@H](CO)[C@@H](O[C@@H]2O[C@H](CO)[C@H](O)[C@H](O)[C@H]2O)[C@@H]1O [Gal-β4-GlcNAc-β-pNP],"radioactive GlcNAc transfer, scintillation counting",B3GNT2; 2 mM UDP-GlcNAc with UDP-[3H]GlcNAc,showed clear N-acetylglucosaminyltransferase activity toward the acceptor only with B3GNT2
B1,Km,purified protein [1],4.0 mM
same,kcat,purified protein [1],0.25 s⁻¹
same,kcat/Km,purified protein [1],63 M⁻¹ s⁻¹
same,Km,purified protein [2]; 2 h,3.0 mM
same,kcat,purified protein [2]; 2 h,0.087 s⁻¹
same,kcat/Km,purified protein [2]; 2 h,29 M⁻¹ s⁻¹
B2,Km,purified protein [2]; [3],6.0 mM
same,kcat,purified protein [2]; [3],0.005 s⁻¹
same,kcat/Km,purified protein [2]; [3],0.84 M⁻¹ s⁻¹
